{"source": "patent US20250289897A1", "about": "“LEPTIN RECEPTOR AGONISTIC ANTIBODY AS MONO OR COMBO THERAPIES TO TREAT OBESITY” (ELI LILLY AND COMPANY, priority 2024, published 2025)", "molecular_target": "T1, human LEPR (Homo sapiens, UniProt P48357)", "T1 construct": "introducing DNA plasmids encoding full-length LEPR of different species and STAT3-luciferase reporter gene into HEK293 cells; expressed in transfected cells; host or cells: HEK293 (HEK293-STAT3Luc-hLepR1)", "T1 sequence (P48357 22-1165)": "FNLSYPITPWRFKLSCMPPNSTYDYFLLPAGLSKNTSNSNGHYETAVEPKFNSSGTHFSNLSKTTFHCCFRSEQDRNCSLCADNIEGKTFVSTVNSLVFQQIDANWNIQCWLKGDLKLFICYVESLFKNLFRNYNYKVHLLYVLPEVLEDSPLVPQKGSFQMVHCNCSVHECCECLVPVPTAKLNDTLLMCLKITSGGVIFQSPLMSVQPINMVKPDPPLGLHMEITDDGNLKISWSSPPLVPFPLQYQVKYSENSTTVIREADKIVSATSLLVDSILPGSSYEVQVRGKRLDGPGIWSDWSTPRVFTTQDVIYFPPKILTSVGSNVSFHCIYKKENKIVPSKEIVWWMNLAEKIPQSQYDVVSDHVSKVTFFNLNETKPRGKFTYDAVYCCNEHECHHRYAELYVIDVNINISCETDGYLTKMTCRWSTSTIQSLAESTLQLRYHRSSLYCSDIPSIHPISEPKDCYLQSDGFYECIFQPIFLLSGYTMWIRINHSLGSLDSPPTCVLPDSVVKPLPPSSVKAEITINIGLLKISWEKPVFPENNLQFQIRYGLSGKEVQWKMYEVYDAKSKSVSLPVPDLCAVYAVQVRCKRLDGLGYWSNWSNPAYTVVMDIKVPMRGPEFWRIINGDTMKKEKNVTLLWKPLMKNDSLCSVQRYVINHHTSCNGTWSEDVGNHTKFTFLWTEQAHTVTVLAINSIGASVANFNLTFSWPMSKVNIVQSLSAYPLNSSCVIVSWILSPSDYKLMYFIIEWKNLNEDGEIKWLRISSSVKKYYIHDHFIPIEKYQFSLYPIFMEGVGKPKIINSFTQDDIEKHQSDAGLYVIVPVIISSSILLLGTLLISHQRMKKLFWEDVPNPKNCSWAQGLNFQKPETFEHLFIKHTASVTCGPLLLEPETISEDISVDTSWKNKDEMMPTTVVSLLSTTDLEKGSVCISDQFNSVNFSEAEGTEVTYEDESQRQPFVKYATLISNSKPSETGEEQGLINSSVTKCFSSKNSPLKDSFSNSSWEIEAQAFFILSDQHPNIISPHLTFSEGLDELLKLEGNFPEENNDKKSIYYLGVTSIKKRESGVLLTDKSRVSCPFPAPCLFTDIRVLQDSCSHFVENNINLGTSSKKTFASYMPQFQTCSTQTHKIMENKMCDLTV", "experiment": "pERK induction (AlphaLISA p-ERK1/2) in HEK293-STAT3Luc-hLepR1 cells", "assay_type": "cell-based", "method": "Antibodies were tested for the ability to induce phosphorylation of extracellular-signal-related kinase (pERK) in HEK293-STAT3Luc-hLepR1 cells. To measure pERK induction, cells were first cultured overnight at 37° C. in 96-well plate with DMEM medium supplemented with 10% FBS. On day 2, medium was removed, cells were washed in serum-free DMEM and incubated for an additional 24-hour in serum-free DMEM. On day 3, medium was removed and 1:4 series dilutions of antibodies A, B, and C with top concentration of 200nM in serum-free DMEM were added to the cells for 15 minutes. Testing was run in duplicates. Recombinant human leptin protein (SEQ ID NO:27) was used as a positive control in this assay. An IgGI with Fc modifications to ablate binding to Fcγ receptors was used as a negative control (IgG isotype control). Phospho-ERK1/2 was assessed in the whole cell lysate by measuring the amplified luminescence with AlphaLISA SureFire Ultra p-ERK1/2 (Thr202/Tyr204) kit (PerkinElmer, #ALSU-PERK-A-HV). Data was calculated using 4 parameters sigmoidal fit of the data (SigmaPlot software). Results, expressed in Table 12 are averaged EC50 of two independent experiments."}
{"substance": "human leptin: recombinant human leptin protein (SEQ ID NO:27), positive control", "values": [{"measurement": "Baseline RLU", "setting": "pERK AlphaLISA", "result": 29762.5, "unit": "RLU"}, {"measurement": "Maximum RLU", "setting": "pERK AlphaLISA", "result": 137565, "unit": "RLU"}, {"measurement": "EC50", "setting": "pERK, 15 minutes, average of two independent experiments, read-out: EC50 (nM) ± STDEV", "result": 1.07, "unit": "nM"}]}
